Results taken from patent publication EP4613777A1 (Guangdong Keyangle Life Technology Co., Ltd., dated 2025).

How the values were obtained:
Peptide fragment KS24 = molecular target: T1, Peptide fragment KS24; assay: indirect ELISA, peptide as coating antigen
T1 construct: It contains VLQS; Used as ELISA coating antigen
T1 peptide: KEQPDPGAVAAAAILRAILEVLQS

Peptide fragment KL19 = molecular target: T2, Peptide fragment KL19; assay: indirect ELISA, peptide as coating antigen
T2 construct: Used as ELISA coating antigen
T2 peptide: KEQPDPGAVAAAAILRAIL

binding result (Peptide fragment KS24): binds
binding result (Peptide fragment KL19): no binding
B1: KA-001 monoclonal antibody (antibody, mouse IgG1, kappa, V domains shown)
VH: DVKIVESGGGLVKLGGSLKLSCAASGFTFSRNYMSWVRQTPEKRLELVAGINNNGGSTYYPDTVKGRFTISRDNAKNTLYLQMSSLRSEDTAIYYCAKRGFITTVGAMDYWGQGISVTVSS
VL: DIQMTQTTFSLSASLGDRVTISCRASQDISNYLNWYQQIPDGTVKLLIYYTSRLHSGVPSRFSGSGSGTDYSLTISNLEQEDIATYFCQQVHTLPYTFGGGTKLEMKR
notes: also called antibody KA-001
